# B1: r16_88_TrROS_Hall (parent)
# chain: EVIELKIKFKTPEQREKLKEIAKKLNAEVVEEKDGEVIIRFKTPEQAERALKEAEKLGAEVEL
# Variants of: B1
# Experiment: folding stability dG (cDNA display proteolysis); higher = more stable
# Settings: PBS, room temperature
row,Variant,folding stability dG
1,T11N,4.26 kcal/mol
2,T11E,4.14 kcal/mol
3,T11A,4.39 kcal/mol
4,L5E,3.72 kcal/mol
5,L5P,2.55 kcal/mol
6,L5R,4.4 kcal/mol
7,L5G,4.02 kcal/mol
8,L5Q,4.28 kcal/mol
9,E4A,4.69 kcal/mol
10,E4P,4.4 kcal/mol
11,E4V,4.58 kcal/mol
12,E4Q,4.79 kcal/mol
13,E4M,4.72 kcal/mol
14,E4L,4.56 kcal/mol
15,R40H,4.04 kcal/mol
16,R40S,4.38 kcal/mol
17,R40K,4.27 kcal/mol
18,R40T,4.79 kcal/mol
19,E13D,4.3 kcal/mol
20,E13I,4.32 kcal/mol
21,E13H,4.41 kcal/mol
22,E13Q,4.57 kcal/mol
23,L57Y,4.28 kcal/mol
24,L57S,4.26 kcal/mol

row,Variant,folding stability dG
1,L57R,3.57 kcal/mol
2,L57H,4.26 kcal/mol
3,Q14P,3.48 kcal/mol
4,Q14E,3.98 kcal/mol
5,Q14S,4.19 kcal/mol
6,Q14Y,4.18 kcal/mol
7,Q14W,4.3 kcal/mol
8,Q14H,4.2 kcal/mol
9,V29F,4.23 kcal/mol
10,V29S,4.32 kcal/mol
11,V29R,4.57 kcal/mol
12,V29T,4.21 kcal/mol
13,V29I,4.3 kcal/mol
14,V29E,4.47 kcal/mol
15,V29W,4.3 kcal/mol
16,V29G,4.47 kcal/mol
17,D34F,4.34 kcal/mol
18,D34H,4.52 kcal/mol
19,D34V,4.4 kcal/mol
20,D34T,4.49 kcal/mol
21,D34M,4.5 kcal/mol
22,D34Q,4.35 kcal/mol
23,K19S,4.25 kcal/mol
24,K19P,3.37 kcal/mol

row,Variant,folding stability dG
1,K19R,4.3 kcal/mol
2,K19T,4.49 kcal/mol
3,F41D,0.465 kcal/mol
4,F41Y,4.23 kcal/mol
5,F41V,4.09 kcal/mol
6,F41H,3.13 kcal/mol
7,F41R,1.04 kcal/mol
8,F41G,3.01 kcal/mol
9,F41M,4.14 kcal/mol
10,F9N,3.54 kcal/mol
11,F9Y,4.33 kcal/mol
12,F9P,4.02 kcal/mol
13,F9A,4.06 kcal/mol
14,F9K,2.75 kcal/mol
15,F9V,4.27 kcal/mol
16,F9G,3.9 kcal/mol
17,K24R,4.38 kcal/mol
18,K24L,4.5 kcal/mol
19,K24S,4.47 kcal/mol
20,K24H,4.3 kcal/mol
21,K24P,3.96 kcal/mol
22,K24F,4.67 kcal/mol
23,K24M,4.4 kcal/mol
24,A54H,3.5 kcal/mol

row,Variant,folding stability dG
1,A54K,3.51 kcal/mol
2,A54F,4.35 kcal/mol
3,A54C,4.41 kcal/mol
4,L18F,4.29 kcal/mol
5,L18Q,2.9 kcal/mol
6,L18I,4.33 kcal/mol
7,L18M,4.28 kcal/mol
8,L18S,4.19 kcal/mol
9,L18W,4.54 kcal/mol
10,L18T,4.15 kcal/mol
11,L25E,4.25 kcal/mol
12,L25Q,4.42 kcal/mol
13,L25C,4.35 kcal/mol
14,L25W,4.85 kcal/mol
15,L25A,4.05 kcal/mol
16,L25H,4.62 kcal/mol
17,E62L,4.21 kcal/mol
18,E62Y,4.12 kcal/mol
19,E62I,4.35 kcal/mol
20,E62F,4.25 kcal/mol
21,I21A,4.15 kcal/mol
22,I21T,4.33 kcal/mol
23,I21V,4.33 kcal/mol
24,I21C,4.31 kcal/mol

row,Variant,folding stability dG
1,I21G,3.77 kcal/mol
2,I21S,4.17 kcal/mol
3,I21H,4.29 kcal/mol
4,I21P,1.81 kcal/mol
5,A27R,3.72 kcal/mol
6,A27E,3.84 kcal/mol
7,A27C,4.25 kcal/mol
8,A27M,4.42 kcal/mol
9,A27Q,3.88 kcal/mol
10,A27Y,4.25 kcal/mol
11,A27W,4.42 kcal/mol
12,K33S,4.17 kcal/mol
13,K33E,3.99 kcal/mol
14,K33T,4.35 kcal/mol
15,K33C,4.42 kcal/mol
16,K33M,4.39 kcal/mol
17,K33V,4.35 kcal/mol
18,K33D,4.26 kcal/mol
19,E36Y,4.89 kcal/mol
20,E36P,4.07 kcal/mol
21,E36A,4.59 kcal/mol
22,E36F,4.66 kcal/mol
23,E36H,4.68 kcal/mol
24,E36L,4.61 kcal/mol

row,Variant,folding stability dG
1,E36M,4.48 kcal/mol
2,E36K,4.65 kcal/mol
3,E36Q,4.67 kcal/mol
4,E36T,4.59 kcal/mol
5,A59P,4.55 kcal/mol
6,A59F,4.59 kcal/mol
7,A59E,4.23 kcal/mol
8,A59N,4.3 kcal/mol
9,I38Y,4.76 kcal/mol
10,I38D,3.82 kcal/mol
11,I38F,4.96 kcal/mol
12,I38C,4.3 kcal/mol
13,I38E,3.67 kcal/mol
14,I38T,4.44 kcal/mol
15,K52I,4.03 kcal/mol
16,K52Y,4.67 kcal/mol
17,K52V,4.2 kcal/mol
18,K52T,4.23 kcal/mol
19,K52D,4.25 kcal/mol
20,N26F,4.24 kcal/mol
21,N26A,4.41 kcal/mol
22,N26D,4.3 kcal/mol
23,N26E,4.09 kcal/mol
24,N26W,4.36 kcal/mol

row,Variant,folding stability dG
1,N26M,4.53 kcal/mol
2,K42E,3.81 kcal/mol
3,K42V,4.19 kcal/mol
4,K42R,4.62 kcal/mol
5,K42Q,3.95 kcal/mol
6,K42F,4.33 kcal/mol
7,E16V,4.47 kcal/mol
8,E16M,4.6 kcal/mol
9,E16N,4.5 kcal/mol
10,E16S,4.44 kcal/mol
11,E20M,4.79 kcal/mol
12,E20G,4.32 kcal/mol
13,E20H,4.5 kcal/mol
14,E20W,4.75 kcal/mol
15,V2I,4.15 kcal/mol
16,V2H,4.34 kcal/mol
17,V2C,4.51 kcal/mol
18,R15Y,4.58 kcal/mol
19,R15C,4.31 kcal/mol
20,V61A,4.51 kcal/mol
21,V61T,4.2 kcal/mol
22,V61F,4.05 kcal/mol
23,V61E,4.3 kcal/mol

# From the MegaScale stability set (Tsuboyama et al. 2023)
